Experimental data reported in US10919943B2, “Mutant proteins enabling agrochemical control of plant gene expression” (The Regents of the University of California, priority 2016, dated 2021).
Numbering of substitutions follows the chain as printed. Numbers in names are those of the source.

T1: PYR1 (Arabidopsis thaliana, UniProt O49686)
T1 construct: expressed in transfected cells; host or cells: S. cerevisiae strain Y190
T1 sequence (O49686 1-191): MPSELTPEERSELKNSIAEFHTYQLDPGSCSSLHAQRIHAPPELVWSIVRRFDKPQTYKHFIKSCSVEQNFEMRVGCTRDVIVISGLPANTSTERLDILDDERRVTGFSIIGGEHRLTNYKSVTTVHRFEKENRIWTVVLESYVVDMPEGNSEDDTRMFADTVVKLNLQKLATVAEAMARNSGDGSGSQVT

B1: W385M: HAB1 mutant (protein, UniProt Q9CAJ0 23-511, looked up, variant W385M)
Protein phosphatase 2C 16: SPVEITQLKNVTDAADLLSDSENQSFCNGGTECTMEDVSELEEVGEQDLLKTLSDTRSGSSNVFDEDDVLSVVEDNSAVISEGLLVVDAGSELSLSNTAMEIDNGRVLATAIIVGESSIEQVPTAEVLIAGVNQDTNTSEVVIRLPDENSNHLVKGRSVYELDCIPLWGTVSIQGNRSEMEDAFAVSPHFLKLPIKMLMGDHEGMSPSLTHLTGHFFGVYDGHGGHKVADYCRDRLHFALAEEIERIKDELCKRNTGEGRQVQWDKVFTSCFLTVDGEIEGKIGRAVVGSSDKVLEAVASETVGSTAVVALVCSSHIVVSNCGDSRAVLFRGKEAMPLSVDHKPDREDEYARIENAGGKVIQMQGARVFGVLAMSRSIGDRYLKPYVIPEPEVTFMPRSREDECLILASDGLWDVMNNQEVCEIARRRILMWHKKNGAPPLAERGKGIDPACQAAADYLSMLALQKGSKDNISIIVIDLKAQRKFKTRT
B2: W385T: HAB1 mutant (protein, UniProt Q9CAJ0 23-511, looked up, variant W385T)
Protein phosphatase 2C 16: B1 Protein phosphatase 2C 16 with M363T
B3: W385Y: HAB1 mutant (protein, UniProt Q9CAJ0 23-511, looked up, variant W385Y)
Protein phosphatase 2C 16: B1 Protein phosphatase 2C 16 with M363Y
B4: R389D: HAB1 mutant (protein, UniProt Q9CAJ0 23-511, looked up, variant R389D)
Protein phosphatase 2C 16: B1 Protein phosphatase 2C 16 with M363W, R367D
B5: W385V: HAB1 mutant (protein, UniProt Q9CAJ0 23-511, looked up, variant W385V)
Protein phosphatase 2C 16: B1 Protein phosphatase 2C 16 with M363V
B6: R389R: HAB1, x printed at the wild-type residue; see doubts (protein, UniProt Q9CAJ0 23-511, looked up)
Protein phosphatase 2C 16: B1 Protein phosphatase 2C 16 with M363W
B7: W385N: HAB1 mutant (protein, UniProt Q9CAJ0 23-511, looked up, variant W385N)
Protein phosphatase 2C 16: B1 Protein phosphatase 2C 16 with M363N
B8: R389L: HAB1 mutant (protein, UniProt Q9CAJ0 23-511, looked up, variant R389L)
Protein phosphatase 2C 16: B1 Protein phosphatase 2C 16 with M363W, R367L
B9: W385G: HAB1 mutant (protein, UniProt Q9CAJ0 23-511, looked up, variant W385G)
Protein phosphatase 2C 16: B1 Protein phosphatase 2C 16 with M363G
B10: W385R: HAB1 mutant (protein, UniProt Q9CAJ0 23-511, looked up, variant W385R)
Protein phosphatase 2C 16: B1 Protein phosphatase 2C 16 with M363R
B11: R389M: HAB1 mutant (protein, UniProt Q9CAJ0 23-511, looked up, variant R389M)
Protein phosphatase 2C 16: B1 Protein phosphatase 2C 16 with M363W, R367M
B12: R389C: HAB1 mutant (protein, UniProt Q9CAJ0 23-511, looked up, variant R389C)
Protein phosphatase 2C 16: B1 Protein phosphatase 2C 16 with M363W, R367C
B13: R389A: HAB1 mutant (protein, UniProt Q9CAJ0 23-511, looked up, variant R389A)
Protein phosphatase 2C 16: B1 Protein phosphatase 2C 16 with M363W, R367A
B14: R389Q: HAB1 mutant (protein, UniProt Q9CAJ0 23-511, looked up, variant R389Q)
Protein phosphatase 2C 16: B1 Protein phosphatase 2C 16 with M363W, R367Q
B15: W385I: HAB1 mutant (protein, UniProt Q9CAJ0 23-511, looked up, variant W385I)
Protein phosphatase 2C 16: B1 Protein phosphatase 2C 16 with M363I
B16: R389V: HAB1 mutant (protein, UniProt Q9CAJ0 23-511, looked up, variant R389V)
Protein phosphatase 2C 16: B1 Protein phosphatase 2C 16 with M363W, R367V
B17: R389W: HAB1 mutant (protein, UniProt Q9CAJ0 23-511, looked up, variant R389W)
Protein phosphatase 2C 16: B1 Protein phosphatase 2C 16 with M363W, R367W
B18: W385D: HAB1 mutant (protein, UniProt Q9CAJ0 23-511, looked up, variant W385D)
Protein phosphatase 2C 16: B1 Protein phosphatase 2C 16 with M363D
B19: W385C: HAB1 mutant (protein, UniProt Q9CAJ0 23-511, looked up, variant W385C)
Protein phosphatase 2C 16: B1 Protein phosphatase 2C 16 with M363C
B20: W385Q: HAB1 mutant (protein, UniProt Q9CAJ0 23-511, looked up, variant W385Q)
Protein phosphatase 2C 16: B1 Protein phosphatase 2C 16 with M363Q
B21: R389T: HAB1 mutant (protein, UniProt Q9CAJ0 23-511, looked up, variant R389T)
Protein phosphatase 2C 16: B1 Protein phosphatase 2C 16 with M363W, R367T
B22: W385S: HAB1 mutant (protein, UniProt Q9CAJ0 23-511, looked up, variant W385S)
Protein phosphatase 2C 16: B1 Protein phosphatase 2C 16 with M363S
B23: R389E: HAB1 mutant (protein, UniProt Q9CAJ0 23-511, looked up, variant R389E)
Protein phosphatase 2C 16: B1 Protein phosphatase 2C 16 with M363W, R367E
B24: R389F: HAB1 mutant (protein, UniProt Q9CAJ0 23-511, looked up, variant R389F)
Protein phosphatase 2C 16: B1 Protein phosphatase 2C 16 with M363W, R367F
B25: R389Y: HAB1 mutant (protein, UniProt Q9CAJ0 23-511, looked up, variant R389Y)
Protein phosphatase 2C 16: B1 Protein phosphatase 2C 16 with M363W, R367Y
B26: R389P: HAB1 mutant (protein, UniProt Q9CAJ0 23-511, looked up, variant R389P)
Protein phosphatase 2C 16: B1 Protein phosphatase 2C 16 with M363W, R367P
B27: W385F: HAB1 mutant (protein, UniProt Q9CAJ0 23-511, looked up, variant W385F)
Protein phosphatase 2C 16: B1 Protein phosphatase 2C 16 with M363F
B28: W385E: HAB1 mutant (protein, UniProt Q9CAJ0 23-511, looked up, variant W385E)
Protein phosphatase 2C 16: B1 Protein phosphatase 2C 16 with M363E
B29: W385K: HAB1 mutant (protein, UniProt Q9CAJ0 23-511, looked up, variant W385K)
Protein phosphatase 2C 16: B1 Protein phosphatase 2C 16 with M363K
B30: W385P: HAB1 mutant (protein, UniProt Q9CAJ0 23-511, looked up, variant W385P)
Protein phosphatase 2C 16: B1 Protein phosphatase 2C 16 with M363P
B31: W385H: HAB1 mutant (protein, UniProt Q9CAJ0 23-511, looked up, variant W385H)
Protein phosphatase 2C 16: B1 Protein phosphatase 2C 16 with M363H

biological target: T1, PYR1; assay: Yeast two hybrid of pACT-HAB1 site saturation mutants with pBD-PYR1 on 10 μM ABA, β-galactosidase staining; type: cell-based; set-up: key: x: Mutations in HAB1 that disrupt HAB1 interaction with PYR1; details: S. cerevisiae Y190, 10 μM ABA; dead = lack of detectable staining in comparison to wild type control
Excerpt: To systematically define mutations in HAB1 that disrupt its binding to PYR1, we used site saturation mutagenesis to create a collection all possible single amino acid substitutions in 20 residues lining the PYR1 binding interface, and then assayed the ability of each mutant to bind PYR1 using the yeast two hybrid assay described above. We targeted the following residues for mutagenesis: R199, 5200, E201, E203, H245, G246, G247, S322, E323, T324, K381, I383, Q384, W385, Q386, R389, F391, G392, V393, and Y404. To create the collection of mutations, mutagenic “NNK” site directed mutagenesis primers were synthesized for each of the 20 positions and the primers used in QuickChange site-directed mutagenesis reactions using a previously described pACT-HAB1 template (Park et al., 2009). We note that this clone uses a HAB1 cDNA lacking its three N-terminal amino acids. The reaction products were digested with DpnI, and transformed into competent Escherichia coli DH5α cells and plasmid DNA for 96 colonies per site was isolated using Bioneer AccuPrep® Plasmid Mini Extraction Kit (Alameda, Calif.) and sequenced to identify mutants. This process identified most of the 19 desired mutations per target site; the remaining mutations were constructed directly using specific mutagenic primers. To interrogate the effects of the mutations on PYR1-HAB1 interactions, the mutant clones were individually transformed into S. cerevisiae strain Y190 containing pBD-PYR1 (Park et al., 2009). Yeast transformants were selected for the presence of plasmids on selective SD (-Leu,-Trp) plates and then spotted onto SD (-Leu,-Trp) agar plates supplemented with 10 μM ABA. After incubating the test plates at 30° C. for two days, the colonies were lysed with chloroform and stained to reveal […] expression levels. “Dead” mutants were defined by lack of detectable staining in comparison to a wild type pBD-PYR1/pACT-HAB1 control. This screening effort defined 163 mutations that disrupt the ABA-induced PYR1/HAB1 interaction (Table 2).

Mutations in HAB1 that disrupt HAB1 interaction with PYR1 | Molecule
x | B1
x | B2
x | B3
x | B4
x | B5
x | B6
x | B7
x | B8
x | B9
x | B10
x | B11
x | B12
x | B13
x | B14
x | B15
x | B16

Mutations in HAB1 that disrupt HAB1 interaction with PYR1 | Molecule
x | B17
x | B18
x | B19
x | B20
x | B21
x | B22
x | B23
x | B24
x | B25
x | B26
x | B27
x | B28
x | B29
x | B30
x | B31
